Measurements published in patent publication US20260242478A1 (published 2026).

B1: Phage-2117 (peptide)
peptide: EIKWCVPQWMCENQ
notes: Clonal phage of the peptide-180 library
B2: Phage-2118 (peptide)
peptide: EMIWCRPAWMCEGI
notes: as for B1
B3: Phage-2119 (peptide)
peptide: YAKWCIPEWMCAVS
notes: as for B1
B4: Phage-2120 (peptide)
peptide: EIHLCKPPWMCDWL
notes: as for B1
B5: Phage-2121 (peptide)
peptide: AEKWCIPPWMCEWV
notes: as for B1
B6: Phage-2122 (peptide)
peptide: VTAWCIPEWMCVGV
notes: as for B1
B7: Phage-2123 (peptide)
peptide: EIKWCRPGWMCKVR
notes: as for B1
B8: Phage-2124 (peptide)
peptide: ILKACIPDWMCEGS
notes: as for B1
B9: Phage-2125 (peptide)
peptide: EFKWCTPPWMCQWD
notes: as for B1
B10: Phage-2126 (peptide)
peptide: SDKWCIPPWMCEVA
notes: as for B1
B11: Phage-2127 (peptide)
peptide: WDKWCIPEWMCVTQ
notes: as for B1
B12: Phage-2128 (peptide)
peptide: DGLLCRPLWMCQFL
notes: as for B1
B13: Phage-2129 (peptide)
peptide: PLPWCIPVWMCSMI
notes: as for B1
B14: Phage-2130 (peptide)
peptide: LVKWCTPPWMCESQ
notes: as for B1
B15: Phage-2131 (peptide)
peptide: LMKWCIPDWMCSHV
notes: as for B1
B16: Phage-2147 (peptide)
peptide: VEKWCIPQWMCVSQ
notes: Clonal phage of the Peptide-180 library, tested as crude supernatant; not shown: fused to the pIII filament of the bacteriophage
B17: Phage-2148 (peptide)
peptide: IMKLCMPPWMCAAM
notes: as for B16
B18: Phage-2149 (peptide)
peptide: ITNWCKPAWMCEVS
notes: as for B16
B19: Phage-2150 (peptide)
peptide: VHIWCIPQWMCMDR
notes: as for B16
B20: Phage-2151 (peptide)
peptide: YEIRCIPPWMCAFD
notes: as for B16
B21: Phage-2152 (peptide)
peptide: IEKWCTPAWMCYGI
notes: as for B16
B22: Phage-2153 (peptide)
peptide: EHKWCIPDWMCMVA
notes: as for B16
B23: Phage-2154 (peptide)
peptide: LDKWCTPEWMCWGI
notes: as for B16
B24: Phage-2155 (peptide)
peptide: EGRWCIPSWMCVGV
notes: as for B16
B25: Phage-2156 (peptide)
peptide: VSKWCTPEWMCTGF
notes: as for B16
B26: Phage-2157 (peptide)
peptide: DVIRCTPDWMCTGF
notes: as for B16
B27: Phage-2158 (peptide)
peptide: FERWCIPAWMCQSD
notes: as for B16
B28: Phage-2159 (peptide)
peptide: ETKWCFPPWMCAGS
notes: as for B16
B29: Phage-2160 (peptide)
peptide: AMHWCIPKWMCETS
notes: as for B16
B30: Phage-2132 (peptide)
peptide: DANWCKPTWMCAGF
B31: Phage-2133 (peptide)
peptide: FEMLCTPPWMCVGL
B32: Phage-2134 (peptide)
peptide: EGKWCIPEWMCSAS
B33: Phage-2135 (peptide)
peptide: TERWCVPAWMCTLV
B34: Phage-2136 (peptide)
peptide: VYKWCTPPWMCTQM
B35: Phage-2137 (peptide)
peptide: VLKWCIPTWMCETQ
B36: Phage-2138 (peptide)
peptide: VQKWCIPEWMCAVA
B37: Phage-2139 (peptide)
peptide: LEKWCTPSWMCIGI
B38: Phage-2140 (peptide)
peptide: EHKWCIPSWMCADM
B39: Phage-2141 (peptide)
peptide: EMKLCRPAWMCEYM
B40: Phage-2142 (peptide)
peptide: IPKWCTPVWMCEGM
B41: Phage-2143 (peptide)
peptide: VWHWCTPPWMCNAE
B42: Phage-2144 (peptide)
peptide: AEKWCIPNWMCEAG
B43: Phage-2145 (peptide)
peptide: MVNWCTPPWMCWGF
B44: Phage-2146 (peptide)
peptide: SAPWCIPEWMCFSL

The binders below were run against T1, Anti-PSMA Fab (SEQ ID NOs: 19, 20) (assay: phage ELISA; PSMA Fab on plate pre-incubated with PSMA antigen as competitor, anti-M13 HRP).
T1 construct: Biotinylated Fab captured on neutravidin coated plates in the phage ELISA; also called 006 PSMA Fab
Experimental: (§1) Clonal phage were harvested as crude supernatants and screened via standard ELISAs. […] Prior to the addition of clonal phage. wells were incubated with blocking buffer and PSMA antigen or blocking buffer alone. Without washing or aspirating, clonal phage supernatants were then added to the wells and incubated for a short time. Wells were then washed followed by detection of bound phage using a horse radish conjugated anti-M13 antibody.

Row | Binder | Phage binding ELISA, Anti-PSMA Fab signal in the presence of PSMA
1 | B1 | 0.0643
2 | B2 | 0.0702
3 | B3 | 0.12
4 | B4 | 0.109
5 | B5 | 0.105
6 | B6 | 0.0929
7 | B7 | 0.0583
8 | B8 | 0.0604
9 | B9 | 0.101
10 | B10 | 0.0724
11 | B11 | 0.1
12 | B12 | 0.0771
13 | B13 | 0.161
14 | B14 | 0.0701
15 | B15 | 0.0763

What follows are binders tested against T1, Anti-PSMA Fab (SEQ ID NOs: 19, 20) (assay: phage ELISA; biotinylated PSMA Fab on neutravidin plate, bound phage detected with anti-M13 HRP).
Experimental: as §1

Row | Binder | Phage binding ELISA, Anti-PSMA Fab signal
16 | B1 | 1.72
17 | B2 | 1.72
18 | B3 | 1.72
19 | B4 | 1.72
20 | B5 | 1.71
21 | B6 | 1.71
22 | B7 | 1.71
23 | B8 | 1.71
24 | B9 | 1.71
25 | B10 | 1.71
26 | B11 | 1.71
27 | B12 | 1.71
28 | B13 | 1.71
29 | B14 | 1.71
30 | B15 | 1.71

The binders below were run against T2, Anti-PSMA Fab (SEQ ID NOs: 19, 20) (assay: phage ELISA; PSMA Fab on plate pre-incubated with PSMA antigen as competitor, anti-M13 HRP detection;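 note: crude clonal phage supernatants added to Fab-coated wells still holding PSMA antigen in blocking buffer, with bound phage as read-out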).
T2 construct: Biotinylated PSMA Fab captured on neutravidin coated plates in the phage ELISA; also called 006 PSMA Fab
Experimental: as §1

Row | Binder | Phage binding ELISA, Anti-PSMA Fab signal in the presence of PSMA
31 | B16 | 0.0673
32 | B17 | 0.0907
33 | B18 | 0.114
34 | B19 | 0.202
35 | B20 | 0.117
36 | B21 | 0.077
37 | B22 | 0.0728
38 | B23 | 0.0536
39 | B24 | 0.0956
40 | B25 | 0.0826
41 | B26 | 0.064
42 | B27 | 0.066
43 | B28 | 0.337
44 | B29 | 0.141

What follows are binders tested against T2, Anti-PSMA Fab (SEQ ID NOs: 19, 20) (assay: phage ELISA; biotinylated PSMA Fab on neutravidin plate, clonal phage supernatant, anti-M13 HRP detection;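 note: wells preincubated with PSMA antigen in blocking buffer or with blocking buffer only before clonal phage were added for a short incubation, then bound phage detected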).
Experimental: as §1

Row | Binder | Phage binding ELISA, Anti-PSMA Fab (SEQ ID NOs: 19, 20) signal
45 | B16 | 1.69
46 | B17 | 1.68
47 | B18 | 1.68
48 | B19 | 1.68
49 | B20 | 1.68
50 | B21 | 1.68
51 | B22 | 1.67
52 | B23 | 1.67
53 | B24 | 1.67
54 | B25 | 1.67
55 | B26 | 1.66
56 | B27 | 1.66
57 | B28 | 1.66
58 | B29 | 1.66

The binders below were run against T3, Anti-PSMA Fab (SEQ ID NOs: 19, 20) (assay: phage ELISA; biotinylated PSMA Fab on neutravidin plate, clonal phage supernatant, anti-M13-HRP detection;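 note: wells were preincubated with blocking buffer containing PSMA antigen or with blocking buffer only, then phage supernatant was added without washing for a brief incubation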).
T3 construct: also called 006 PSMA Fab
Experimental: as §1

Row | Binder | Phage binding ELISA, Anti-PSMA Fab (SEQ ID NOs: 19, 20) signal
59 | B30 | 1.7
60 | B31 | 1.7
61 | B32 | 1.7
62 | B33 | 1.7
63 | B34 | 1.7
64 | B35 | 1.7
65 | B36 | 1.7
66 | B37 | 1.7
67 | B38 | 1.69
68 | B39 | 1.69
69 | B40 | 1.69
70 | B41 | 1.69
71 | B42 | 1.69
72 | B43 | 1.69
73 | B44 | 1.69

What follows are binders tested against T3, Anti-PSMA Fab (SEQ ID NOs: 19, 20) (assay: phage ELISA; biotinylated PSMA Fab on neutravidin plate pre-incubated with PSMA antigen as competitor, anti-M13-HRP detection).
Experimental: as §1

Row | Binder | Phage binding ELISA, Anti-PSMA Fab signal in the presence of PSMA
74 | B30 | 0.109
75 | B31 | 0.0639
76 | B32 | 0.0777
77 | B33 | 0.0741
78 | B34 | 0.0779
79 | B35 | 0.0908
80 | B36 | 0.0584
81 | B37 | 0.0773
82 | B38 | 0.108
83 | B39 | 0.0727
84 | B40 | 0.0647
85 | B41 | 0.141
86 | B42 | 0.0588
87 | B43 | 0.194
88 | B44 | 0.101
